Each block holds one binder with its values, some of them ahead of it.
What was measured:
[1] = target: human Angiopoietin-2 (human) (UniProt O15123); assay: inhibition of rhAng-2 binding to its receptor
[2] = target: human Ang-2 changed at positions 365 and 367 (human) (UniProt O15123); assay: ELISA
[3] = target: Mouse/Human Ang-2 StuI chimeric molecule (mouse; human) (UniProt O35608); assay: ELISA
[4] = target: human Ang-2 H375Q (human) (UniProt O15123); assay: ELISA
[5] = target: Mouse/Human chimeric Ang-2 with the human StuI-TfiI fragment (mouse/human chimera) (UniProt O35608); assay: ELISA
[6] = target: human Ang-2443 (human) (UniProt O15123); assay: ELISA
[7] = target: human Ang-2 V345M (human) (UniProt O15123); assay: ELISA
[8] = target: T1, Human Ang-1/2 BsmI chimeric molecule (human); assay: ELISA
T1 sequence: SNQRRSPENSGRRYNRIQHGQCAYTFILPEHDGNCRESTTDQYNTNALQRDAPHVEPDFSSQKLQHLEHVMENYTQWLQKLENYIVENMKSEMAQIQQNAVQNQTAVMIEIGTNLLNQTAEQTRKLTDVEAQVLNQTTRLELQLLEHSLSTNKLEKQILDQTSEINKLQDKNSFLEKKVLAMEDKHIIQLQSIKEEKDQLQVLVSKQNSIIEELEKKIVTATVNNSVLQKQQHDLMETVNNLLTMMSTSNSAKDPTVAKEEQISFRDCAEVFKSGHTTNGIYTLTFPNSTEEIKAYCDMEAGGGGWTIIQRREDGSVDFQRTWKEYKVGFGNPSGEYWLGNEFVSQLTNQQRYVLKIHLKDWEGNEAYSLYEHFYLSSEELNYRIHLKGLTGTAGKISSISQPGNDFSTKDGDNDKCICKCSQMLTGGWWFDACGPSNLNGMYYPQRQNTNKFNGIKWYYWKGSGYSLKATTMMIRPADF

[9] = target: mouse Angiopoietin-2 (mouse) (UniProt O35608); assay: ELISA; member tied by Table 16

B1: mAb 3.28.1 (antibody, part only; not given: light chain, V domains shown, part only)
VH: EVQLVESGGGLVQPGGSLRLSCAASGFTFSSSWMSWVRQAPGKGLEWVANIKQDGSDKYYVDSVKGRFTISRDNAKNSLYLQMNSLRAEDTAVYYCVRDKGSGWFDYWGQGTLVTVSSA
OD650 in inhibition assay [1]: 0.0588 OD650
% of binding to human Ang-2 [2]: 100%
% of binding to human Ang-2 [3]: 100%
% of binding to human Ang-2 [4]: 100%
% of binding to human Ang-2 [5]: 31%
% of binding to human Ang-2 [6]: 100%
% of binding to human Ang-2 [7]: 100%
% of binding to human Ang-2 [8]: 100%

B2: mAb 5.2.1 (antibody, part only; not given: light chain, V domains shown, part only)
VH: QVQLVESGGGVVQPGRSLRLSCAASGFTFSSYGMHWVRQAPGKGLEWVAVIWFDGFNKYYADSVKGRFTISRDNSKNTLYLQMNSLRAEDTAVYHCARDRGYSGYDHYYGMDVWGQGTTVTVSSA
OD650 in inhibition assay [1]: 0.069 OD650
% of immunoreactivity on human Ang-2 [9]: 100%
% of binding to human Ang-2 [2]: 100%
% of binding to human Ang-2 [3]: 100%
% of binding to human Ang-2 [4]: 100%
% of binding to human Ang-2 [5]: 100%
% of binding to human Ang-2 [6]: 100%
% of binding to human Ang-2 [7]: 100%
% of binding to human Ang-2 [8]: 100%

B3: mAb 5.39.1 (antibody, V domains shown)
VH: QVQLVQSGAEVTKPGASVKVSCKASGYTFTAYHMYWVRQAPGQGLEWMGWINPNSGGTNYAQKFQGRVTMTRDTSISTAYMELSRLRSDDSPVYYCARDQGIAAAGPFDYWGQGTLVTVSS
VL: EIVMTQSPATLSVSPGDRATLSCRASQSVSSNFAWYQQKPGQAPRLLIYGSSTRATGIPARFSGSGSGTEFTLTISSLQSEDFAVYYCQQYHYWWTFGQGTKVEFKR
% of binding to human Ang-2 [2]: 100%

B6: mAb 5.28.1 (antibody, V domains shown)
VH: EVQLVESGGIVVQPGGSLRLSCAASGFTFDDYTMHWVRQTPGKGLEWVSLISWDGGSTYYADSVKGRFTISRDNSKNSLYLQMNSLRTEDTALYYCAKDIDIAVAGTGFDHWGQGTLVTVSS
VL: EIVMTQSPATLSVSPGERATLSCRASQSVTSNLAWYQQKPGQAPRLLIYGALIRATGIPARFSGSGSGTEFTLTISSLQSEDFAVYYCQQYNNWPFTFGPGTKVDIKR
% of binding to human Ang-2 [2]: 100%

B7: mAb 3.3.2 (antibody, V domains shown)
VH: EVQLVESGGGLVQPGGSLRLSCAVSGFTFSSYWMSWVRQAPGKGLEWVANIKQDGSEKYYVDSVKGRFTISRDNAKNSLYLQMNSLRAEDTAVYYCARDQGIAVAGPFDYWGQGTLVTVSS
VL: EIVMTQSPATLSVSPGERATLSCRASQTVSSDLAWYQQKPGQAPRLLIYGASIRATGIPARFSGSGSGTEFTLTISSLQSEDFAVYSCQQYYNWWTFGQGTKVEIKR
% of binding to human Ang-2 [2]: 100%

B8: mAb 5.62.1 (antibody, V domains shown)
VH: EVQLVESGGGLVQPGGSLRLSCAASGFTFSSYWMSWVRQAPGKGLEWVANIKQDGSEKYYVDSVKGRFTISRDNAKNSLYLQMNSLRAEDTAVYYCARDPGIAVAGPFDYWGQGTLVTVSS
VL: EIVMTQSPATLSVSPGERATLSCRASQSVSSNLAWYQQKPGQAPRLLIYGAFTRATGIPARFSGSGSGTEFTLTISSLQSEDFAVYYCQQYNHWWTFGQGTKVGIKR
% of binding to human Ang-2 [2]: 100%

Continued, values first:

% of binding to human Ang-2 [2]: 100%
B4: mAb 5.86.1 (antibody, V domains shown)
VH: QVQLVQSGAEVKKPGASVKVSCKASGYTFTGYHMYWVRQAPGQGLEWLGWINPNSGGTNYAQKFQGRVTMTRDTSISTAYMELSRLRSDDTAVYYCVRDQGIAAAGPFDYWCQGTLVTVSS
VL: DIRMTQSPSSLSASVGDRVTITCRASQRISTYLNWYQQKPGKAPKFLIYAASSLQSGVPSRFSGSGSGTDFTLTISSLQPEDFATYYCQQSYTTPFTFGPGTKVDIKR

% of binding to human Ang-2 [2]: 100%
B5: mAb 6.3.1 (antibody, V domains shown)
VH: QVQLVQSGAEVKKPGASVKVSCKASGYTFTGYFMHWVPQAPGQGLEWMGWINPNSGGTNYAQNFQGRVTMTRDTSISTAYMELSRLRSDDTPVYYCARDPWQNWNSYFDYWGQGTLVTVSS
VL: DIQMTQSPSSLSASVGDRVTITCRASQSIRSYLNWYQQKPGKAPKVLIYAASSLQSGVPSRFSGSGSGTDFTLTISSLQPEDFATYYCQQSYSTLCSFGQGTKLEIKR

% of binding to human Ang-2 [2]: 100%
B9: mAb 5.88.3 (antibody, V domains shown)
VH: EVQMVESGGGLVQPGGSLRLSCAASGFTLRSYWMSWVRQAPGKGLEWVANIKEDGSEKYHVDSVKGRFTISRDNAENSLFLQMSSLRAEDTAVYYCARDMEASAGLFDYWGQGTLVTVSS
VL: EIVMTQSPATLSVSPGERAILSCRASQSISSNLAWYQQKPGQAPRLLIYGASTRATGIPARFSGSGSGTEFTLTISSLQSEDFAVYYCQQYNYWWTFGQGTKVEIKR
